Here are results for 19 sequences from a protein production outcome set (Wang et al. 2014).

The nature of this series: label from the status in PepcDB records.

As to “MALDEAPAEARPGSRAVELEIDGRSRIFDIDDPDLPKWIDEEAFRSDDYPYKKKLDREEYEETLTKLQIELVKVQFWMQATGKRVMAVFEGRDAAGKGGAIHATTANMNPRSARVVALTKPTETERGQWYFQRYVATFPTAGEFVLFDRSWYNRAGVEPVMGFCTPDQYEQFLKEAPRFEEMIANEGIHLFKFWINIGREMQLKRFHDRRHDPLKIWKLSPMDIAALSKWDDYTGKRDRMLKETHTEHGPWAVIRGNDKRRSRINVIRHMLTKLDYDGKDEAAIGEVDEKILGSGPGFLR”, the protein production entry is given as “not failed”.

For “MALDSSGKQPEQQQQQQPRASSGNGEARLKLRRTPNEEHEPENYEDLPLDYSPSLFTSLERYLPEQLLNSTRIDKASFMRDLLLRYSPDTERVRVLRHKEYRDKIMSSYQRLHGEIYTLDPSSFFAPSFLGAFSRKSEPNFRSSMVESYPGIFTFEMFKPQFCEMLLAEVEHMEKWVYDSRSTIMRPNTMNNFGVVLDDFGFDSMLQKLVDDFISPIAQVLFPEVCGTSLDSHHGYIVEYGKDRDVDLGFHVDDSEVSLNVCLGKQFSGGELYFRGVRCDKHVNSDSTEKEVYDYSHVPGHAILHRGRHRHGARATTSGHRANLILWCRSSTFREMKNYQRDFSGWCGGCKLDKQRRQRDSINATKEILARKAAEKTLVELASKSCAE”, the protein production entry was “failed”.

With “MALEPAEIFEKVSPSVWEVRVIGPDGKGLSMGSAVVIGDGVVITNCHVLRGGKQVWLKRGNANFGARLQYPDVERDLCQLRVADFHYPPVTLAPGSALVTGQKVYAIGNPLGLELTISEGLISSLRTDDDGRLKSVQTSAAISRGSSGGGLFDANGRLIGITDHQVVLTLGQNLNFAIPADWIADVPARAQKALAARAAAASAVVASTPAPQSAAPTPAPAPAPRHQGELGPNQQTGFSVYLQKTWPKAFVAADGDHYYYWTGKNAELYALSACQERWQNCSVYARNNTVVEPVEGTGERPGAAR”, the protein production entry is recorded as “failed”.

On to “MALGLLPLVLLTLSIFIYLVSKMSWKMGALLNFLAGLFTILYVFTLKVGTFEKLDLFGLNIQFEWTNVSFYFSFVSLLVIVSVMLFSTKWLETQKYRASYNMFLLMVTAGSLGVFMAADLITLYVFWEIAVLSSLLIVPMEKKEARKAVVVYAVMSAVGTYAFLYGTFLAYQRYGTLNIHGIAQGMLNDTSIGFKMAVFLLLSAAGIAKSGIFPLHIWLRETHGLAPNAFSSVLSGQFIKLGNYIFLLVLSVIPSLKVFSEVTVYSGIPLPNYILIALGNVSIVIGTLMAIKQDDMKMLMAYSSVANGGYILIGIGTMDPLGFEGGMFHIFNHAVASAVIFMAFAAVIYRTKTQKISEMGGLIHKMPVTFLVYLFSIISLAGIPPMSGFISKWMIYQALVRKGMFITAFLAFFGSIGSFLYVFRPLAGVFLGQLPRKYRDVKEAPAVMLTPMVLLVLISFFLGVWPFPILQAIEKIRVDLDVAPSFKISDPENWLVKGFAGSWNPVLVFGLFLVGFIVAYILYSLFPRPKKVDLLAPHREEGTPINIYTGGEFIYNPDLYHYNTKFYAGFERMYEKHPSWEKLLKMFGKLFHDAGEWIHSWFFEPSSSAYTFWVVVTLLLVFWVRW”, for which the protein production entry is on record as “failed”.

With “MALKATIYKADLNIANMDSHHYADYQLTLALHPSETIERLMVRILAFARFADENLQFTKDLFETDEPALWQKDLTGQLEQWIELGQPSEDKLKKASARCKHVVVVTYGQQVDEWWKRNNKVKTLSNVEVWQLAPETTSQLEKLCERTMQLQLNVMDGEWTLLNDHEQVDVSWTKLH”, the protein production entry is given as “failed”.

For “MALLKSPIFGICFSLILYTIGQDLFKKSKGFFLLQPLFFAMVAGIIVLVLLAKGLGTDVKTLYTQAYKPGGDLIFWFLNPATIAFAVPLYKKNDAVKKYWKEIISSLIIGMVVSLIIIVAISKAIGLSQASTASMLPQAATTAIALPIAHAIGGNTAITAMACILNAVIIYALGKKLVALFHLNKSEIGVGLGLGTSGHTVGAAFALELGELQGAMAAIAVVVIGLVVDLVIPIFSYMIGLVH”, the protein production entry is on record as “failed”.

As to “MALLLAALLVLLTALLAVRLPAWASALLLGLLAGSGYALGVRSEALPAGALLLLGALAAPRLYLGPRRRKRPERRPPGPKRPAAAGTTAEREALSQRYEILEKVGLGGMATVYKAKDRKTGRLVALKVPQERFLGDPRFVRRFHREAEVLTRMDHPNIVKVYDHGQVEGVHYIAMEFLDGEGLDKLIEERRLSLRQAAAILARVADALKHIHAQGIVHRDIKPGNIMVLKGALREDGVDPRGVRLMDFGIAAGRVLTRLTITGARIGTPVYMSPEQAKGQKLDHRSDIYSLGIVLYEALTGQPPFTGGYETVIHQQIFQMPTPPKQLRPEIPQALSDLVLRMLEKDPAKRPGLDEVVRVLEGPWEEERELPEAQYLLVAVEAKKGAVRLLDLEGTPARLLSGVGSGAGQFPSPPLAVAADPEGGIWVAVFQHGERLVHRLSPQGEVLLSTGPYGMKPGEFLLPVGLAVLEDQVFVLDGETATVSRLDLAGRYQGRFGGQGLGRGTFQDPKALVAAEGHLFVLDYGNRQVQRLTPEGGYLSRYAFRRSREDGALRLLGGVGVGEGRLYLYDVEAVKVRVLDLSGRLLASYPLPLLEGEDRMSLVELLPVGRVLYAARRGSSRIHRISLDTGEALPPLEVYAPVRGLALWRRTP”, the protein production entry is on record as “failed”.

Turning to “MALMTNKTRALLIGGHGKVALLATPMLIDASVQVTSMYRNPDHRSEIEALGATTLERDVTTLSVEDWADLLKDFDVVVWSAGNGGKNGADATYAIDRDAAIASIDGAASLGEKAPRYIMVSYIGSSTHTIDPSASFYPYAESKKAADEHLSSTNLDYLILAPAALTLDEVNGVEVIADTNEAAAGRTTSRVLVAEVITEFVVRDFPQTRVLPFVDGESPLEHHHHHH”, the protein production entry was “not failed”.

Turning to “MALNLKQRLEQKFEEEIRFFKGMVSQPKKVGAIVPTSSITAKKMASVINPHSGLPVLELGPGTGVITKAILARGIKPESLTAIEYSTDFYNQLLRSYPGVNFVNGDAFDLDATLGEHKGQMFDSVISAVPMLNFPMAARIKLLDELLKRVPHGRPVVQISYGPISPIVAQPHLYHIRHFDFIVRNIPPAQLWTYTRALEHHHHHH”, the protein production entry is recorded as “failed”.

Consider “MALPHVVSSPSSTSLSPSFKSKPPFHSLRSLSPTVDNRRRCKLNSSFRCSSSSFSEKHHNAKSPKSDDIVELPLFPLPLVLFPGAILPLQIFEFRYRIMMHTLLQSDLRFGVVYSDSVSGSAAEVGCVGEVVKHERLVDDRFFLVCKGQERFRVTNVVRTKPYLVGEVTWLEDRPSGEENLDSLANEVEVLMKEVIRLSNRLNGKAEKEVQDLRRNQFPTPFSFFVGSTFEGAPREQQALLELEDTAARLKRERETLRNTLNYLTAASAVKDVFPSSS”, for which the protein production entry is “failed”.

For the sequence “MALQSSVRAFKKPPRPLVDEVRFLRSWIEKPLHMGAVMPSGKLLARTMARYVDIQSDGPVIELGPGTGAITNALVEHGVDQKRLVLLEFDPGFCALLRERFPLAKVVQGDAYRLRDSLWDALEIPATAVVSGLPLVTKPMLTRMKLIRDAFTLLEPGAPFVQFTYSVAPPIPKSLPGVSTEGSERIWMNVPPARVWVYRKRLEHHHHHH”, the protein production result is listed as “failed”.

On to “MALRSLVLFAALALVGCSSSPTADLVLTNGTVATLDDDHEQVEALAAADDTLLAVGSADAIDAYVGGDTRVIDLQGRLAVPGFIEGHGHYMGMGQAQMQLDLLGTSSWGRVVAKVDSSADETASGAWVEGRGWHQEKWTSTPERMVRGFPTNARLNEAAPDTPVYLTHASGHAAIANDAALEAAGIGPNTPDPEGGTIVRDAQERVTGVLLETAAGLVQEALDASRSGMSAADRRARRERQVRLAAEEALANGVTSFQDQGASFETIRLYREMAERGALDIRMYAMVAQGEVTPETQERLAEIRTVGAADQHLTVRAIGEVTVDGALGSRSAWMLEPYDDAPNDTGINVTPMERVREIAEIGLDEDYQIAVHAIGDRANRETLDLYASLFEAADGRGAERRWRVEHAQHLHPDDISRFADLGVMASMQAIHACSDAPYNYQRLGAQRVDQGAYLWNTLWADGAVVGNGTDVPVEKIDPLASLHCTATRQVPGTDTTFTPDETLTRRRALQSYTINNARMAFEEDVKGTLTPGKLADVTVLSENILTGPPERLREATVDYTIVGGEVAYANE”, for which the protein production result was “failed”.

Consider “MALSADIVGMHYRYPDHYEVEREKIREYAVAVQNDDAWYFEEDGAAELGYKGLLAPLTFICVFGYKAQAAFFKHANIATAEAQIVQVDQVLKFEKPIVAGDKLYCDVYVDSVREAHGTQIIVTKNIVTNEEGDLVQETYTTLAGRAGLEHHHHHH”, for which the protein production entry is given as “not failed”.

For “MALTEAWLIEKANRKLNAGGMYKITSDKTRNVIKKMAKEGIYLCVAQGYRSTAEQNALYAQGRTKPGAIVTNAKGGQSNHNYGVAVDLCLYTNDGKDVIWESTTSRWKKVVAAMKAEGFKWGGDWKSFKDYPHFELCDAVSGEKIPAATQNTNTNSNRYEGKVIDSAPLLPKMDFKSSPFRMYKVGTEFLVYDHNQYWYKTYINDKLYYMYKSFCDVVAKKDAKGRIKVRIKSAKDLRIPVWNNTKLNSGKIKWYAPNTKLAWYNNGKGYLELWYPSDGWYYTANYFLK”, the protein production result is on record as “failed”.

In the case of “MAMNLRKNQAPLYIKVHEIDNTAIIVNDGGLPKGTVFSCGLVLEEDVPQGHKVALTDLNQGDEIVRYGEVIGFADETIKRGSWIREALVRMPAP”, the protein production entry was “failed”.

Take “MAMPEIDALLGLSFCLYFFDNKQHKLPHIHVKYGSYELIIAIETGECLEGYLPNKQRKRAENHILEHREQLMVMWNKAVNGENPGKLGDLCLEHHHHHH”: the protein production entry is “failed”.

Regarding “MANENVAFENKRQVYHYEPPIQKEEAIPKQYFAGFWIRFLAYLVDLVVIAALKGIIINPIFRVSGMGMDDSFFTFYWGMTTIIFLAYFILLTKFFGQTLGKMLFGLRVVKLDGGKLTWLTVLFREGAMRFVLKTIWPLYVVCAFTPNKQGIADFFESTSVVHTGYLELDEKWVNGAKK”, the protein production result is listed as “failed”.

Regarding “MANIVFIATSLDGYIADKRGKLDWLHSVPNPNNVDTGFVALMERVDGLVMGRNTLDMVLSFDCDWPYSKPVFVLSNTMTEVPQGYEDKVFLVKGKLVDIIADLNAKGFNELYIDGGVTIQNFLKEDLIDEMVITRFPILLGGGVPLFGELESSLSFNVIKSEVVLDSLTQTTYHRKRA”, the protein production entry was “not failed”.

Turning to “MANKKGRRRSFGSCRQLASGRWQVRYRDPQTGLLRPAEKTYETKTDAQVALTHIEADITRGQWADPDAGDVNFADYATAWLRDRKLADRTRERNESVMRLHVVPVFGAGSIADVTTARVRSWRGKLLAAGVGEPTVVKAYQLLRALMNTAVDDELIRRNPCRIKGADSYDVPERPVLSVAEVFGVAYAIAPRYRLLVLLAAFTTLRFGELAALRRKDIDLNGRLVVVRRAQAELQNGRLFDKAPKSAAGLRTVSFPAELVDEISHHLKHYAADGQEGHLFVGPQGGQLRRSNFRDDWIKARKAAGVSPKLHFHDLRHTGNTLASTAGASTRELMTRMGHSSSRAALIYQHMTSDRDRTIADRLGAMIRNGEGDLTAAGD”, the protein production result is on record as “failed”.
